Measurements taken from US20230329294A1 (CLARA FOODS, published 2023).

Molecular target: bovine trypsin (bovine, UniProt P00760 24-246)
Test: cell-based or functional assay

Sequence of bovine trypsin (P00760 24-246): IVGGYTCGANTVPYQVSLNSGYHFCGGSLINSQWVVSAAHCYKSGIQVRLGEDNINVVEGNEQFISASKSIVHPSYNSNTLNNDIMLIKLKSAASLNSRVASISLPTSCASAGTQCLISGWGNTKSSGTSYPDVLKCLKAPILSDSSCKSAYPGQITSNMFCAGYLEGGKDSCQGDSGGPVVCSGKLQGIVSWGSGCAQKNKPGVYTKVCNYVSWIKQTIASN

Trypsin inhibition activity: 13700 TIU/g
B1: native chicken ovomucoid (other)
chain: AEVDCSRFPNATDKEGKDVLVCNKDLRPICGTDGVTYTNDCLLCAYSIEFGTNISKEHDGECKETVPMNCSSYANTTSEDGKVMVLCNRAFNPVCGTDGVTYDNECLLCAHKVEQGASVDKRHDGGCRKELAAVSVDCSEYPKPDCTAEDRPLCGSDNKTYGNKCNFCNAVVESNGTLTLSHFGKC
modifications: complex branched N-linked glycosylation (that includes mannose)
